According to US20150158921A1:

Tests used:
Experiment in all cases: cell-based or functional assay
[1] = biological target: human α6/α3β2β3 nAChR (human), P17787
[2] = biological target: human α7 nAChR (human), P36544
[3] = biological target: rat NMDA receptor NR1-2b/NR2A (rat), P35439
[4] = biological target: rat NMDA receptor NR1-2b/NR2B (rat), P35439
[5] = biological target: rat NMDA receptor NR1-2b/NR2C (rat), P35439
[6] = biological target: rat NMDA receptor NR1-2b/NR2D (rat), P35439
[7] = biological target: rat α2β2 nAChR (rat), P12389
[8] = biological target: rat α2β4 nAChR (rat), P12389
[9] = biological target: rat α3β2 nAChR (rat), P04757
[10] = biological target: rat α3β4 nAChR (rat), P04757
[11] = biological target: rat α4β2 nAChR (rat), P09483
[12] = biological target: rat α4β4 nAChR (rat), P09483
[13] = biological target: rat α6/α3β2β3 nAChR (rat), P12390
[14] = biological target: rat α6/α3β4 nAChR (rat), P12392
[15] = biological target: rat α7 nAChR (rat), Q05941

rat α3β4 nAChR (rat), P04757, sequence (P04757 26-499, chain 1 of 2): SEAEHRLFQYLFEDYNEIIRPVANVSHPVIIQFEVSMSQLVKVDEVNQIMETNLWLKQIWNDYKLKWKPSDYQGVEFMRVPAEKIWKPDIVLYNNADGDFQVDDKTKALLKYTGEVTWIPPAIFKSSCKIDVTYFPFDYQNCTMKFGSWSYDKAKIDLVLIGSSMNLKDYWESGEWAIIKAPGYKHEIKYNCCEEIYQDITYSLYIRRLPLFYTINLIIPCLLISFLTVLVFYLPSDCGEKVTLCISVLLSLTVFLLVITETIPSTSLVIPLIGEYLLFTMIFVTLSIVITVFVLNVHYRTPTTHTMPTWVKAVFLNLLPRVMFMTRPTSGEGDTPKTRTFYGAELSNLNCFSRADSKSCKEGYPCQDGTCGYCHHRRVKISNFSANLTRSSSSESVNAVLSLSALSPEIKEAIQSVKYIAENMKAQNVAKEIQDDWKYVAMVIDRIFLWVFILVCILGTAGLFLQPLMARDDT
rat α3β4 nAChR (rat), P04757, sequence (P12392 21-495, chain 2 of 2, further chain): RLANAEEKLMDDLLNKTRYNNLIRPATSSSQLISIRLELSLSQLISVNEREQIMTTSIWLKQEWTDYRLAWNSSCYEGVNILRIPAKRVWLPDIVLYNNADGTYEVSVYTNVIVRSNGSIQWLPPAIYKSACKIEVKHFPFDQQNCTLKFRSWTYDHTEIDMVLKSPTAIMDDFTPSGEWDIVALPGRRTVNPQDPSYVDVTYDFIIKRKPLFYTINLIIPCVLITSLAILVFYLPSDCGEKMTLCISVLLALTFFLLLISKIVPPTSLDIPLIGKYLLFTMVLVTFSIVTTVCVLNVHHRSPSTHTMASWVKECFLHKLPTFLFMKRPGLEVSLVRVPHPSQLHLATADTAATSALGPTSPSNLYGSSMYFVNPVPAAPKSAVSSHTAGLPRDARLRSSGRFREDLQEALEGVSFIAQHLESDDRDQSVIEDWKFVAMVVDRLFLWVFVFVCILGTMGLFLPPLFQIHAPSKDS
rat α3β2 nAChR (rat), P04757, sequence (P04757 26-499, chain 1 of 2): as the sequence (P04757 26-499, chain 1 of 2) above
rat α3β2 nAChR (rat), P04757, sequence (P12390 25-500, chain 2 of 2, further chain): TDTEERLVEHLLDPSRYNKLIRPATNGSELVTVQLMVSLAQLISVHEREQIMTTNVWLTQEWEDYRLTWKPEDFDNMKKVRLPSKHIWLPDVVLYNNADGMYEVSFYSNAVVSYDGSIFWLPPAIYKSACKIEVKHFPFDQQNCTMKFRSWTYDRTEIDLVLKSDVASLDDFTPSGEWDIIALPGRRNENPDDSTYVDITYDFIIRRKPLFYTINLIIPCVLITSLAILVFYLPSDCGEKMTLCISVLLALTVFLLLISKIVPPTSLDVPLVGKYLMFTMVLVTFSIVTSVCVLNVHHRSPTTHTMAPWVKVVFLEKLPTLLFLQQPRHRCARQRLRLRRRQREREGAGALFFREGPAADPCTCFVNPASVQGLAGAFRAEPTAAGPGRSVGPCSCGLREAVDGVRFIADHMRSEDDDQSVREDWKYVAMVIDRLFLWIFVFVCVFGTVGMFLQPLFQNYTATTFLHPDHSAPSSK
human α7 nAChR (human), P36544, sequence (P36544 23-502): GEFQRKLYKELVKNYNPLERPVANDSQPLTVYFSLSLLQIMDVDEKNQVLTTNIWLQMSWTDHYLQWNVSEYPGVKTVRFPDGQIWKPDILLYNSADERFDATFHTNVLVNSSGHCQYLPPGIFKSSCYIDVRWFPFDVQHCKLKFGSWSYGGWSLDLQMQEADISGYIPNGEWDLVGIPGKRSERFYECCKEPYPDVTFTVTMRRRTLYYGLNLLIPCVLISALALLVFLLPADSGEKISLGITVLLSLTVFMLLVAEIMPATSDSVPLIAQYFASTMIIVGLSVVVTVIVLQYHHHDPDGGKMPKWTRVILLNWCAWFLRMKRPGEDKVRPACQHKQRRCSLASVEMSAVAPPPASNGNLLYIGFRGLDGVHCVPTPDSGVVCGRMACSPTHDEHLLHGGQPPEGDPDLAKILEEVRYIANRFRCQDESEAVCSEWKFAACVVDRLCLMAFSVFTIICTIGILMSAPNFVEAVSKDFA
rat α2β4 nAChR (rat), P12389, sequence (P12389 28-511, chain 1 of 2): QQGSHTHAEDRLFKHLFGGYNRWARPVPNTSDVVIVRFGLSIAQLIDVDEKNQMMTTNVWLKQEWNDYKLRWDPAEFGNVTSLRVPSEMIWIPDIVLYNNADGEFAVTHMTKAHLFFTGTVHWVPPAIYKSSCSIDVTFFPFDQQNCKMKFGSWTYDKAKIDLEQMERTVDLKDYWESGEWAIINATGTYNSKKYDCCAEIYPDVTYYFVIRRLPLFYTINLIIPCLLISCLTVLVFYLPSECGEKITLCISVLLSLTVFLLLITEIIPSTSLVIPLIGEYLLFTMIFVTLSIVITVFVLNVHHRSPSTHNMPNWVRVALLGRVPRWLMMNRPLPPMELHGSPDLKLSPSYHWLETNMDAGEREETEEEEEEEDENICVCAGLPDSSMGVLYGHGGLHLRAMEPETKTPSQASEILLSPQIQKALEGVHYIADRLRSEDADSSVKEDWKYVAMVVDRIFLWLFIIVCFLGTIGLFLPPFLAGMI
rat α2β4 nAChR (rat), P12389, sequence (P12392 21-495, chain 2 of 2, further chain): as the sequence (P12392 21-495, chain 2 of 2, further chain) above
rat α2β2 nAChR (rat), P12389, sequence (P12389 28-511, chain 1 of 2): as the sequence (P12389 28-511, chain 1 of 2) above
rat α2β2 nAChR (rat), P12389, sequence (P12390 25-500, chain 2 of 2, further chain): as the sequence (P12390 25-500, chain 2 of 2, further chain) above
rat α6/α3β4 nAChR (rat), P12392, sequence (P12392 21-495): as the sequence (P12392 21-495, chain 2 of 2, further chain) above

TCRSSGRYCRSPYDRRRRYCRRITDACV (modifications not checked) [αO-conotoxin GeXIVA12 (GeXIVA mature peptide isomer with disulfide bonds I-II, III-IV)] was tested, and the Half-blocking dose IC50, ACh-gated current, oocyte voltage clamp [1] was 0.505 µM, the Half-blocking dose IC50, ACh-gated current, oocyte voltage clamp [2] was 0.555 µM and the Half-blocking dose IC50, NMDA receptor current, oocyte voltage clamp [3] was 3.7 µM. It also gave a Half-blocking dose IC50, NMDA receptor current, oocyte voltage clamp [4] of 4 µM, a Half-blocking dose IC50, NMDA receptor current, oocyte voltage clamp [5] of 0.655 µM and a Half-blocking dose IC50, NMDA receptor current, oocyte voltage clamp [6] of 5.2 µM. For the same binder, the Half-blocking dose IC50, ACh-gated current, oocyte voltage clamp [7] was 0.338 µM, the Half-blocking dose IC50, ACh-gated current, oocyte voltage clamp [8] was 2.09 µM and the Half-blocking dose IC50, ACh-gated current, oocyte voltage clamp [9] was 0.412 µM. It also gave a Half-blocking dose IC50, ACh-gated current, oocyte voltage clamp [10] of 5.4 µM, a Half-blocking dose IC50, ACh-gated current, oocyte voltage clamp [11] of 0.979 µM and a Half-blocking dose IC50, ACh-gated current, oocyte voltage clamp [12] of 2.39 µM. It also gave a Half-blocking dose IC50, ACh-gated current, oocyte voltage clamp [13] of 0.258 µM, a Half-blocking dose IC50, ACh-gated current, oocyte voltage clamp [14] of 0.806 µM and a Half-blocking dose IC50, ACh-gated current, oocyte voltage clamp [15] of 0.415 µM.
